Source: patent US11065314B2, “Peptides and combination of peptides for use in immunotherapy against breast cancer and other cancers” (Immatics Biotechnologies GmbH, priority 2015, dated 2021)
Square brackets hold non-standard residues; d marks the D form. Ends that are not written are not given here. pT = C[C@@H](OP(=O)(O)O)[C@H](N)C(=O)O

Target: HLA-A*02:01 (Homo sapiens, UniProt P04439, D140Y/D185E/D98H/E176V/E277Q/G131W/G231S/I119V/I121R/I166T/I218V/L300P/L318F/N151K/N90K/P208A/P217A/Q86G/Q94H/R138H/R169H/T345S)
Test: MHC binding assay: UV-ligand exchange with β2m ELISA
Settings: binding to HLA-A*02:01, UV-ligand exchange
Excerpt: Candidate peptides for T cell based therapies according to the present invention were further tested for their MHC binding capacity (affinity). The individual peptide-MHC complexes were produced by UV-ligand exchange, where a UV-sensitive peptide is cleaved upon UV-irradiation, and exchanged with the peptide of interest as analyzed. Only peptide candidates that can effectively bind and stabilize the peptide-receptive MHC molecules prevent dissociation of the MHC complexes. To determine the yield of the exchange reaction, an ELISA was performed based on the detection of the light chain (β2m) of stabilized MHC complexes. The assay was performed as generally described in Rodenko et al. (Rodenko et al., 2006).
96 well MAXISorp plates (NUNC) were coated over night with 2 ug/ml streptavidin in PBS at room temperature, washed 4× and blocked for 1 h at 37° C. in 2% BSA containing blocking buffer. Refolded HLA-A*02:01/MLA-001 monomers served as standards, covering the range of 15-500 ng/ml. Peptide-MHC monomers of the UV-exchange reaction were diluted 100-fold in blocking buffer. Samples were incubated for 1 h at 37° C., washed four times, incubated with 2 ug/ml HRP conjugated anti-β2m for 1 h at 37° C., washed again and detected with TMB solution that is stopped with […]. Absorption was measured at 450 nm. Candidate peptides that show a high exchange yield (preferably higher than 50%, most preferred higher than 75%) are generally preferred for a generation and production of antibodies or fragments thereof, and/or T cell receptors or fragments thereof, as they show sufficient avidity to the MHC molecules and prevent dissociation of the MHC complexes.

Q: With “ALEAUQLYL (ALEA[pT]QLYL; listed as Homo sapiens) [SEQ ID NO: 29, HLA-A*02 peptide, source gene DEPDC4; U = phospho-threonine]” as the sequence, how does the “Peptide Exchange (peptide exchange yield)” value (from here on “Peptide Exchange”) read?
A: Its value is ““+++” (≥50 = +++)”.

Q: With “ALEEQLHQV (listed as Homo sapiens) [SEQ ID NO: 19, HLA-A*02 peptide, source genes KRT25, KRT28, KRT27]” as the sequence, how does the “Peptide Exchange” value read?
A: Its value is ““++” (≥20% = ++)”.

Q: “ALNPVIYTV (listed as Homo sapiens) [SEQ ID NO: 5, HLA-A*02 peptide, source gene DRD4]” was tested. Which “Peptide Exchange” value did it give?
A: Its value is ““++” (≥20% = ++)”.

Q: “ALTALQNYL (listed as Homo sapiens) [SEQ ID NO: 6, HLA-A*02 peptide, source gene TFAP2B]” was tested. Which “Peptide Exchange” value did it give?
A: Its value is ““+++” (≥50 = +++)”.

Q: For “FIIPTVATA (listed as Homo sapiens) [SEQ ID NO: 7, HLA-A*02 peptide, source gene ABCC11]”, which “Peptide Exchange” value is on record?
A: Its value is ““++++” (≥75% = ++++)”.

Q: With “FLDEEVKLI (listed as Homo sapiens) [SEQ ID NO: 43, HLA-A*02 peptide, source gene FTL]” as the sequence, how does the “Peptide Exchange” value read?
A: Its value is ““+++” (≥50 = +++)”.

Q: “FLSSEAANV (listed as Homo sapiens) [SEQ ID NO: 30, HLA-A*02 peptide, source gene TNFAIP2]” was tested. Which “Peptide Exchange” value did it give?
A: The value was ““++” (≥20% = ++)”.

Q: “FLVEHVLTL (listed as Homo sapiens) [SEQ ID NO: 42, HLA-A*02 peptide, source gene printed 5LC39A6]” was tested. Which “Peptide Exchange” value did it give?
A: The value was ““++++” (≥75% = ++++)”.

Q: How did the “Peptide Exchange” value turn out when “FMSKLVPAI (listed as Homo sapiens) [SEQ ID NO: 9, HLA-A*02 peptide, source gene TPRG1]” was run?
A: The value was ““+++” (≥50 = +++)”.

Q: “FSFPVSVGV (listed as Homo sapiens) [SEQ ID NO: 20, HLA-A*02 peptide, source gene DUSP4]” was tested. Which “Peptide Exchange” value did it give?
A: The value was ““+++” (≥50 = +++)”.

Q: For “GLHSLPPEV (listed as Homo sapiens) [SEQ ID NO: 10, HLA-A*02 peptide, source gene LRRC8E]”, which “Peptide Exchange” value is on record?
A: Its value is ““+++” (≥50 = +++)”.

Q: “GLLPTSVSPRV (listed as Homo sapiens) [SEQ ID NO: 11, HLA-A*02 peptide, source gene SCUBE2]” was tested. Which “Peptide Exchange” value did it give?
A: The value was ““++” (≥20% = ++)”.

Q: With “GLSYIYNTV (listed as Homo sapiens) [SEQ ID NO: 31, HLA-A*02 peptide, source gene COG6]” as the sequence, how does the “Peptide Exchange” value read?
A: Its value is ““++” (≥20% = ++)”.

Q: How did the “Peptide Exchange” value turn out when “GLVATLQSL (listed as Homo sapiens) [SEQ ID NO: 32, HLA-A*02 peptide, source gene IFI6]” was run?
A: The value was ““+++” (≥50 = +++)”.

Q: Which “Peptide Exchange” value does the source give for “GLVQSLTSI (listed as Homo sapiens) [SEQ ID NO: 8, HLA-A*02 peptide, source gene ABCC11]” here?
A: Its value is ““++++” (≥75% = ++++)”.

Q: With “ILFDVVVFL (listed as Homo sapiens) [SEQ ID NO: 25, HLA-A*02 peptide, source gene C4orf3]” as the sequence, how does the “Peptide Exchange” value read?
A: The value was ““++” (≥20% = ++)”.

Q: Which “Peptide Exchange” value does the source give for “ILTELPPGV (listed as Homo sapiens) [SEQ ID NO: 33, HLA-A*02 peptide, source gene ZNF407]” here?
A: Its value is ““++” (≥20% = ++)”.

Q: “KAFPFYNTV (listed as Homo sapiens) [SEQ ID NO: 12, HLA-A*02 peptide, source gene NAIP]” was tested. Which “Peptide Exchange” value did it give?
A: Its value is ““++” (≥20% = ++)”.

Q: With “KLLDMELEM (listed as Homo sapiens) [SEQ ID NO: 39, HLA-A*02 peptide, source gene FAH]” as the sequence, how does the “Peptide Exchange” value read?
A: Its value is ““++++” (≥75% = ++++)”.

Q: With “KLYEGIPVL (listed as Homo sapiens) [SEQ ID NO: 13, HLA-A*02 peptide, source gene NEK10]” as the sequence, how does the “Peptide Exchange” value read?
A: The value was ““++” (≥20% = ++)”.

Q: “KQLELELEV (listed as Homo sapiens) [SEQ ID NO: 14, HLA-A*02 peptide, source gene MUC6]” was tested. Which “Peptide Exchange” value did it give?
A: Its value is ““+++” (≥50 = +++)”.

Q: How did the “Peptide Exchange” value turn out when “LLMUVAGLKL (LLM[pT]VAGLKL; listed as Homo sapiens) [SEQ ID NO: 38, HLA-A*02 peptide, source gene PCNXL3; U = phospho-threonine]” was run?
A: Its value is ““++++” (≥75% = ++++)”.

Q: For “SLAEPRVSV (listed as Homo sapiens) [SEQ ID NO: 27, HLA-A*02 peptide, source gene FASN]”, which “Peptide Exchange” value is on record?
A: Its value is ““+++” (≥50 = +++)”.

Q: With “SLAWDVPAA (listed as Homo sapiens) [SEQ ID NO: 26, HLA-A*02 peptide, source gene FASN]” as the sequence, how does the “Peptide Exchange” value read?
A: The value was ““+++” (≥50 = +++)”.

Q: With “SLFPSLVVV (listed as Homo sapiens) [SEQ ID NO: 15, HLA-A*02 peptide, source gene PLEC]” as the sequence, how does the “Peptide Exchange” value read?
A: The value was ““+++” (≥50 = +++)”.

Q: How did the “Peptide Exchange” value turn out when “SLFSVPFFL (listed as Homo sapiens) [SEQ ID NO: 28, HLA-A*02 peptide, source gene TM9SF1]” was run?
A: The value was ““++++” (≥75% = ++++)”.

Q: How did the “Peptide Exchange” value turn out when “SLLSEIQAL (listed as Homo sapiens) [SEQ ID NO: 35, HLA-A*02 peptide, source genes AKAP9, PCNT]” was run?
A: The value was ““++++” (≥75% = ++++)”.

Q: How did the “Peptide Exchange” value turn out when “SLNDQGYLL (listed as Homo sapiens) [SEQ ID NO: 41, HLA-A*02 peptide, source gene MCM8]” was run?
A: Its value is ““+++” (≥50 = +++)”.

Q: With “SLVEGEAVHLA (listed as Homo sapiens) [SEQ ID NO: 4, HLA-A*02 peptide, source genes TFAP2E, TFAP2A, TFAP2B, TFAP2C]” as the sequence, how does the “Peptide Exchange” value read?
A: Its value is ““++” (≥20% = ++)”.

Q: How did the “Peptide Exchange” value turn out when “SMMGLLTNL (listed as Homo sapiens) [SEQ ID NO: 16, HLA-A*02 peptide, source gene ESR1]” was run?
A: Its value is ““++++” (≥75% = ++++)”.

Q: With “TIASSIEKA (listed as Homo sapiens) [SEQ ID NO: 17, HLA-A*02 peptide, source gene STPG2]” as the sequence, how does the “Peptide Exchange” value read?
A: The value was ““++” (≥20% = ++)”.

Q: With “TLLGLAVNV (listed as Homo sapiens) [SEQ ID NO: 36, HLA-A*02 peptide, source gene CHPT1]” as the sequence, how does the “Peptide Exchange” value read?
A: The value was ““++++” (≥75% = ++++)”.

Q: “YILLQSPQL (listed as Homo sapiens) [SEQ ID NO: 18, HLA-A*02 peptide, source gene MUC6]” was tested. Which “Peptide Exchange” value did it give?
A: The value was ““++++” (≥75% = ++++)”.
